Data published in PMC4911921, “Hfq assists small RNAs in binding to the coding sequence of ompD mRNA and in rearranging its structure”.
Numbering of substitutions follows the chain as printed.

What was measured:
Hfq wt [1] = molecular target: T1, Hfq wt (Salmonella, UniProt P0A1R0 1-102); assay: EMSA; 3 nM Hfq hexamer; 24 mM Tris-HCl pH 7.5, 50 mM NaCl, 50 mM NH4Cl, 50 mM KCl, 0.5 mM EDTA, 2 mM MgCl2, 5% glycerol, room temperature, 1 h; 6% native gel in 1x THEM2; settings: protein: recombinant; tags: C-terminal His6; chain copies: 6; label: 32P
Hfq wt [2] = molecular target: T1, Hfq wt; assay: EMSA; 24 mM Tris-HCl pH 7.5, 50 mM NaCl, 50 mM NH4Cl, 50 mM KCl, 0.5 mM EDTA, 2 mM MgCl2, 5% glycerol, room temperature, 1 h; 6% native gel in 1x THEM2; settings: protein: recombinant, tags: C-terminal His6, chain copies: 6, label: 5'-32P
Hfq K56A [3] = molecular target: T2, Hfq K56A (Salmonella, UniProt P0A1R0 1-102, K56A); assay: as above; settings: protein: recombinant; tags: C-terminal His6; chain copies: 6; label: 5'-32P
Hfq R16A [4] = molecular target: T3, Hfq R16A (Salmonella, UniProt P0A1R0 1-102, R16A); assay: as above; settings: protein: recombinant; tags: C-terminal His6; chain copies: 6; label: 5'-32P
Hfq Y25D [5] = molecular target: T4, Hfq Y25D (Salmonella, UniProt P0A1R0 1-102, Y25D); assay: as above; settings: protein: recombinant; tags: C-terminal His6; chain copies: 6; label: 5'-32P
Hfq K56A [6] = molecular target: T2, Hfq K56A; assay: EMSA; tightest complex; 24 mM Tris-HCl pH 7.5, 50 mM NaCl, 50 mM NH4Cl, 50 mM KCl, 0.5 mM EDTA, 2 mM MgCl2, 5% glycerol, room temperature, 1 h; 6% native gel in 1x THEM2; settings: protein: recombinant; tags: C-terminal His6; chain copies: 6; label: 5'-32P; five stem-loops SL1-SL5
Hfq R16A [7] = molecular target: T3, Hfq R16A; assay: as above; settings: protein: recombinant; tags: C-terminal His6; chain copies: 6; label: 5'-32P; five stem-loops SL1-SL5
Hfq Y25D [8] = molecular target: T4, Hfq Y25D; assay: as above; settings: protein: recombinant; tags: C-terminal His6; chain copies: 6; label: 5'-32P; five stem-loops SL1-SL5
Hfq wt [9] = molecular target: T1, Hfq wt; assay: EMSA; two nonspecific sites (Kns); 24 mM Tris-HCl pH 7.5, 50 mM NaCl, 50 mM NH4Cl, 50 mM KCl, 0.5 mM EDTA, 2 mM MgCl2, 5% glycerol, room temperature, 1 h; 6% native gel in 1x THEM2; settings: protein: recombinant, tags: C-terminal His6, chain copies: 6, label: 5'-32P
Hfq wt [10] = molecular target: T1, Hfq wt; assay: EMSA; specific site (Ks); 24 mM Tris-HCl pH 7.5, 50 mM NaCl, 50 mM NH4Cl, 50 mM KCl, 0.5 mM EDTA, 2 mM MgCl2, 5% glycerol, room temperature, 1 h; 6% native gel in 1x THEM2; settings: protein: recombinant, tags: C-terminal His6, chain copies: 6, label: 5'-32P

CCUGUUGGCAGCAGGCGUU (ssRNA) [ompD-19S]: no binding (Hfq wt [1]).

B1: ompD-1-95 (structured_RNA)
RNA: GCCAUUGACAAACGCCUCGUUUAACAAUGGUUGAGGAAACACGCUAAGAAAAUUAUAAGGAUUAUUAAAAUGAAACUUAAGUUAGUGGCAGUGGC
B1 was tested, and the binding signal (Hfq wt [2]; SL1, SL2) was ~1 fold vs ompD-187 (similar).

B2: ompD-35-131 (structured_RNA)
RNA: GGAAACACGCUAAGAAAAUUAUAAGGAUUAUUAAAAUGAAACUUAAGUUAGUGGCAGUGGCAGUGACUUCCCUGUUGGCAGCAGGCGUUGUAAAUGC
For B2, the binding signal (Hfq wt [2]; SL2, SL3) was ~4 fold tighter than ompD-187.

UAAGUUAGUGGCAGUGGCAGU (ssRNA) [ompD-21R]: no binding (Hfq wt [1]).

GCCGAGGUAUAUAACAAA (ssRNA) [ompD-18M]: no binding (Hfq wt [1]).

GCCACUGCUUUUCUUU (ssRNA) [RybB-16]: no binding (Hfq wt [1]).

B3: ompD-187-SL2mut (structured_RNA)
RNA: GGCCAUUGACAAACGCCUCGUUUAACAAUGGUUGAGGAAACACGCUUUGAUAAUUCUAGGGCUUAUUUUUAUGAUGCUUAAGUUAGUGGCAGUGGCAGUGACUUCCCUGUUGGCAGCAGGCGUUGUAAAUGCAGCCGAGGUAUAUAACAAAGACGGCAAUAAACUGGAUCUGUACGGUAAAGUUCACG
With B3 the binding signal (Hfq K56A [3]) was ~1 fold vs same Hfq mutant to ompD-187 (similar), the binding signal (Hfq R16A [4]) was ~10 fold weaker than R16A to ompD-187 and the binding signal (Hfq wt [2]) was about 3 fold weaker than ompD-187. For the same binder, the binding signal (Hfq Y25D [5]) was ~1 fold vs same Hfq mutant to ompD-187 (similar).

GCCUGCAUUAAUGCCAAC (ssRNA) [SdsR-18]: no binding (Hfq wt [1]).

GUUAUAUGCCUU (ssRNA) [MicC-12]: no binding (Hfq wt [1]).

B4: ompD-93-187 (structured_RNA)
RNA: GGCAGUGACUUCCCUGUUGGCAGCAGGCGUUGUAAAUGCAGCCGAGGUAUAUAACAAAGACGGCAAUAAACUGGAUCUGUACGGUAAAGUUCACG
B4 was tested, and the binding signal (Hfq wt [2]; SL3, SL4, SL5) was about 6 fold weaker than ompD-187.

B5: ompD-187 (structured_RNA)
RNA: GCCAUUGACAAACGCCUCGUUUAACAAUGGUUGAGGAAACACGCUAAGAAAAUUAUAAGGAUUAUUAAAAUGAAACUUAAGUUAGUGGCAGUGGCAGUGACUUCCCUGUUGGCAGCAGGCGUUGUAAAUGCAGCCGAGGUAUAUAACAAAGACGGCAAUAAACUGGAUCUGUACGGUAAAGUUCACG
For B5, the binding signal (Hfq K56A [6]) was about 2 fold weaker than wt Hfq, the binding signal (Hfq R16A [7]) was ~1 fold vs wt Hfq (not changed) and the binding signal (Hfq Y25D [8]) was about 3 fold weaker than wt Hfq. It also gave a Kd (Hfq wt [9]; five stem-loops SL1-SL5) of 1900 ± 580 pM and a Kd (Hfq wt [10]; five stem-loops SL1-SL5) of 610 ± 170 pM.

B6: ompD-187 ARN-5+6 (structured_RNA)
RNA: B5 RNA with A148G, A150G, A157C, A160U, A161C
B6 was tested, and the Kd (Hfq wt [10]) was 810 ± 90 pM.

B7: ompD-187 ARN-1 (structured_RNA)
RNA: B5 RNA with A23C, A24G
In the case of B7, the Kd (Hfq wt [9]) is reported as 3000 ± 460 pM and the Kd (Hfq wt [10]) is reported as 770 ± 97 pM.

B8: ompD-187 ARN-5 (structured_RNA)
RNA: B5 RNA with A148G, A150G
For B8, the Kd (Hfq wt [9]) was 3000 ± 460 pM and the Kd (Hfq wt [10]) was 890 ± 93 pM.

B9: ompD-187 ARN-6 (structured_RNA)
RNA: B5 RNA with A157C, A160U, A161C
B9 was tested, and the Kd (Hfq wt [9]) was 2400 ± 290 pM and the Kd (Hfq wt [10]) was 820 ± 75 pM.

B10: ompD-187 ARN-2 (structured_RNA)
RNA: B5 RNA with A34U, G35U, A38U
For B10, the Kd (Hfq wt [9]) was 2200 ± 250 pM and the Kd (Hfq wt [10]) was 850 ± 3 pM.

B11: ompD-187 ARN-3 (structured_RNA)
RNA: GCCAUUGACAAACGCCUCGUUUAACAAUGGUUGAGGAAACACGCUUUGAUAUUAUAAGGAUUAUUAAAAUGAAACUUAAGUUAGUGGCAGUGGCAGUGACUUCCCUGUUGGCAGCAGGCGUUGUAAAUGCAGCCGAGGUAUAUAACAAAGACGGCAAUAAACUGGAUCUGUACGGUAAAGUUCACG
With B11 the Kd (Hfq wt [9]) was 2900 ± 350 pM, the Kd (Hfq wt [10]) was 930 ± 240 pM and the binding signal (Hfq K56A [3]) was ~1 fold vs same Hfq mutant to ompD-187 (similar). For the same binder, the binding signal (Hfq R16A [4]) was ~6 fold weaker than R16A to ompD-187 and the binding signal (Hfq Y25D [5]) was ~1 fold vs same Hfq mutant to ompD-187 (similar).
